The target of this data set is six other anti-C1s binding antibodies.

B1: human C1s enzyme purified from human plasma (Complement Technology Inc., Cat # A103) (protein)
chain: EPTMYGEILSPNYPQAYPSEVEKSWDIEVPEGYGIHLYFTHLDIELSENCAYDSVQIISGDTEEGRLCGQRSSNNPHSPIVEEFQVPYNKLQVIFKSDFSNEERFTGFAAYYVATDINECTDFVDVPCSHFCNNFIGGYFCSCPPEYFLHDDMKNCGVNCSGDVFTALIGEIASPNYPKPYPENSRCEYQIRLEKGFQVVVTLRREDFDVEAADSAGNCLDSLVFVAGDRQFGPYCGHGFPGPLNIETKSNALDIIFQTDLTGQKKGWKLRYHGDPMPCPKEDTPNSVWEPAKAKYVFRDVVQITCLDGFEVVEGRVGATSFYSTCQSNGKWSNSKLKCQPVDCGIPESIENGKVEDPESTLFGSVIRYTCEEPYYYMENGGGGEYHCAGNGSWVNEVLGPELPKCVPVCGVPREPFEEKQRIIGGSDADIKNFPWQVFFDNPWAGGALINEYWVLTAAHVVEGNREPTMYVGSTSVQTSRLAKSKMLTPEHVFIHPGWKLLEVPEGRTNFDNDIALVRLKDPVKMGPTVSPICLPGTSSDYNLMDGDLGLISGWGRTEKRDRAVRLKAARLPVAPLRKCKEVKVEKPTADAEAYVFTPNMICAGGEKGMDSCKGDSGGAFAVQDPNDKTKFYAAGLVSWGPQCGTYGLYTRVKNYVDWIMKTMQENSTPRED
As to B1, the “C1s-mediated C4 α-chain cleavage (SDS gel), antibody at approximately 10-fold molar excess” value was “six other anti-C1s binding antibodies, including the C1s binding antibody 3F8 (see FIG. 1, Example 2), did not show inhibitory activity”.

(Values after patent US20160090425.)
